Experimental data reported in IntAct's records for PubMed 15716268.

B1: NAD-dependent protein deacetylase sirtuin-1 (Mus musculus), Q923E4 (parent)
chain: MADEVALALQAAGSPSAAAAMEAASQPADEPLRKRPRRDGPGLGRSPGEPSAAVAPAAAGCEAASAAAPAALWREAAGAAASAEREAPATAVAGDGDNGSGLRREPRAADDFDDDEGEEEDEAAAAAAAAAIGYRDNLLLTDGLLTNGFHSCESDDDDRTSHASSSDWTPRPRIGPYTFVQQHLMIGTDPRTILKDLLPETIPPPELDDMTLWQIVINILSEPPKRKKRKDINTIEDAVKLLQECKKIIVLTGAGVSVSCGIPDFRSRDGIYARLAVDFPDLPDPQAMFDIEYFRKDPRPFFKFAKEIYPGQFQPSLCHKFIALSDKEGKLLRNYTQNIDTLEQVAGIQRILQCHGSFATASCLICKYKVDCEAVRGDIFNQVVPRCPRCPADEPLAIMKPEIVFFGENLPEQFHRAMKYDKDEVDLLIVIGSSLKVRPVALIPSSIPHEVPQILINREPLPHLHFDVELLGDCDVIINELCHRLGGEYAKLCCNPVKLSEITEKPPRPQKELVHLSELPPTPLHISEDSSSPERTVPQDSSVIATLVDQATNNNVNDLEVSESSCVEEKPQEVQTSRNVENINVENPDFKAVGSSTADKNERTSVAETVRKCWPNRLAKEQISKRLEGNQYLFVPPNRYIFHGAEVYSDSEDDVLSSSSCGSNSDSGTCQSPSLEEPLEDESEIEEFYNGLEDDTERPECAGGSGFGADGGDQEVVNEAIATRQELTDVNYPSDKS
partner: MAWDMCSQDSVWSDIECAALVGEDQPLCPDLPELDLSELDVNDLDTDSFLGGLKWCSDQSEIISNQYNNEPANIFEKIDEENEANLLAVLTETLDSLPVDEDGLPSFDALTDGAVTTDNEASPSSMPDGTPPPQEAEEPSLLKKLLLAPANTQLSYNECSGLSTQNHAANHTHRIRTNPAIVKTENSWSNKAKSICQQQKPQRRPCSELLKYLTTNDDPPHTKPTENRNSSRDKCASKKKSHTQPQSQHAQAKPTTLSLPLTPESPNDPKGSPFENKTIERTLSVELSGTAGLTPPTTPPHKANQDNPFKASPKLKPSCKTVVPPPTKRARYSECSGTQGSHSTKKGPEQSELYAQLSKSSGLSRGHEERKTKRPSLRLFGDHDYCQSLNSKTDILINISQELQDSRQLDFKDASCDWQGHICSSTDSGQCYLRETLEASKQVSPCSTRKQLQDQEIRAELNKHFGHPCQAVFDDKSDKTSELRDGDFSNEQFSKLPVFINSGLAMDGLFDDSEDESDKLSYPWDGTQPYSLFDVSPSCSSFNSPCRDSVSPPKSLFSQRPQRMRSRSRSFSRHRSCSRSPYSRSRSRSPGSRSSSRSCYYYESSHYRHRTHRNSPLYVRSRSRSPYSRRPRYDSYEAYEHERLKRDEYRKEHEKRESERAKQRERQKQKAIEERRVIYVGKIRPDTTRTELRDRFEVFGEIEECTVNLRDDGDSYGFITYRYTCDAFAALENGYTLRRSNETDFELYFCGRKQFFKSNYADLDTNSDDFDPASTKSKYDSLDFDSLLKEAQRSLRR

Variants of: B1
Conditions: with prgc1_mouse Ppargc1a

Row | effect of a mutation on the interaction | Variant
1 | decreasing interaction | G261A
